Measurements reported in the DeepSol protein solubility set.

Assay: soluble on expression in E. coli; label from the status in PepcDB or PDB records

Sequence	soluble on expression in E. coli
MEKIWPTGAQEETLMTQETNQNEVVVQNNAVAKTNTGSNYITAILEETKQGFVEANNGLDMDFVRMGEWLTVTKKGNFVEKDDENVSYGDNIDVVIGYGEQRWSVWGLEESPEAGQLIVAERTKEEAEIVLNQWLAENPQAQERYELDAIQLRYMASVVPVSTLRPDDFPRIYLMSFSPTDTIIFGRFAMNVYTGKYKALEIPSKLGVNRIVTRLVTAERKSRTNASNQWIGIDFQPVGVFKPEDYGINVEETEQAEKASE	not soluble
MGSDKIHHHHHHMERMKAFLTDENFKHEINFDNDLLPYKIYQTTIANGYPDALFHWHPELEISYIYEGTAQYHIDYDYFNSQTDDIILVRPNGMHSIHPIKNKMQKAQTLLFHLDLVGYSLLDQISLRYLQPLQNSTFKLVPCIKPDMLGYQDIKNCLFAIFDIYQRQGRHFELLLKAKLQELIYLLYFHQYVLRKHSDDMYRKNEKIRELIDYIHQHYQEKLFIISLADIIGYSKTHFMTVFKQHTGTSCTDFIIQFRLSKACDLLVNSIKPILEVASEVGFTNLSNFNRQFKRYYQITPSQYRKQFKKTQK	not soluble
DHYNCVSSGGQCLYSACPIFTRIQGTCYRGRARCCR	soluble
MGSDKIHHHHHHMRHELDNPHAHATNNPCIRCLRHADRYARAVVSMLEVFASDKAEAKHNLFLKEGLCDIDKTLRSNDKRDTLRERPRNQTSSAMTLSPEKRARVMQGEILIDLNWLPDGVIGAKGSVFVEAEPPVVWRMLTDYDHLHETMPKVISSRLLETNNQTRIIAQSGKSGIFIFEKTVNFTLKVEEVFPEHLWFSQIGGDFQVYEGEWQLEAVEGKNGHATLLSYQAEIKPDFFAPQFVVSFVQSQDLPTILRAIRSYCEARAKG	not soluble
MKPSVILYKALPDDLLQRLQEHFTVHQVANLSPQTVEQNAAIFAEAEGLLGSNENVNAALLEKMPKLRATSTISVGYDNFDVDALTARKILLMHTPTVLTETVADTLMALVLSTARRVVEVAERVKAGEWTASIGPDWYGTDVHHKTLGIVGMGRIGMALAQRAHFGFNMPILYNARRHHKEAEERFNARYCDLDTLLQESDFVCLILPLTDETHHLFGAEQFAKMKSSAIFINAGRGPVVDENALIAALQKGEIHAAGLDVFEQEPLSVDSPLLSMANVVAVPHIGSATHETRYGMAACAVDNLIDALQGKVEKNCVNPHVAD	soluble
MAHHHHHHMEGEEKVELSQLELKLEELQVIWEDVQATCPATHSSKRRNSSDAVASPPRVRSTSGAAQRQGANTQEPLQLPSPQSKHPSLRLLHANNKGKLRCTNPVASEGAVLGGIVSVSPPHSPANASVGACPHGRDGGVRNCVPSRLPPLDASHAQELLKACSNCGVEQRRPTAQFCWNCGTRI	not soluble
GMDPKHGNLFADVPVGAPDEIFQPLLERKGLKIERIISNGQASPPGFWYDSPQDEWVMVVSGSAGIECEGDTAPRVMRPGDWLHVPAHCRHRVAWTDGGEPTVWLAVHCDAA	soluble
MSLEKTKLPWDEFFSLNKDINHTYFTPEDFSGDEDLIAKTTEQFVKQEIVPQMENIEQHNYKVSRQLFEKAGELGLLGIEVPEDYGGFELGKAVSGLVAEKMGYAGAFSVSFNIHAGVGTLPYIYYGTKEQKEKYLPKIASGEWIGAYALTEPNAGSDALSAKTSAVLNEEGTAWKLNGEKQWITNAHMADVYVVFAKTNKGMTAFIVERTCEGVSIGLEEKKMGIKGSSTATLILEDVVIPAENVLGEVGKGHHVALNILNFARLKLAFGNIGTAKQAIGLSVQYGKERKQFQTELVDFTMIQEKIANMIIATYGAESAAYRTAGVIDEAIHESDEDLMKKMSQFAIECALNKVNASETLAYIVDEAVQIHGGYGYMQEYEVERLYRDARISRIFEGTNEINRLTVAKMLMKQIEQLEEGHHHHHH	not soluble
MEYRMFDIGVNLTSSQFAKDRDDVVACAFDAGVNGLLITGTNLRESQQAQKLARQYSSCWSTAGVHPHDSSQWQAATEEAIIELAAQPEVVAIGECGLDFNRNFSTPEEQERAFVAQLRIAADLNMPVFMHCRDAHERFMTLLEPWLDKLPGAVLHCFTGTREEMQACVAHGIYIGITGWVCDEPTRTGAAGTFAVDSGGKITDRNLEHHHHHH	not soluble
MKFCYNVVTYCTKRKNNLQEYSIEITLQHPDDMMSLFGSNERHLKLIEENLDVIIHARTERVQVLGDSEEAVETARLTIEALLVLVNRGMTVNTSDVVTALSMAQNGSIDKFVALYEEEIIKDSYGKPIRVKTLGQKIYVDSVKNHDVVFGIGPAGTGKTFLAVTLAVTALKRGQVKRIILTRPAVEAGESLGFLPGDLKEKVDPYLRPVYDALYQILGKEQTSRLMEREIIEIAPLAYMRGRTLDDAFVILDEAQNTTIMQMKMFLTRLGFNSKMIVNGDVSQIDLPKNVKSGLIDAVEKLRNIKKIDFIHLSAKDVVRHPVVAEIINAYSDSESSHKLQSDKD	not soluble
TKDWNLDLTLNMSHNKNKVTKLVEEGRAQSAMDVVVQGSYADQVLAVGYPMGAFHGYEYAGIIQDQARIDELNAYAKSKGQSYYDGNSLKPGHLEIKDLNGDGIINYNDRVIIGNPDPDLFGGLTANLSYKQFSLFANFGYQIGGLKIYNKTLQNLPGQLTGLIDYGLNDRWSDTNKNAKYPALYIGDGVPRLTDHELFNASFFRLQEVRLTYNLPLNKVIKGQLFVSATNLFTLTSYPGTDPATVNSNSNYGGNYETSTYPGFRSFSAGLKINL	not soluble
MGSDKIHHHHHHMAPEDWLRAQMQGEIVALVHSHPGGLPWLSEADRRLQVQSDLPWWLVCRGTIHKFRCVPHLTGRRFEHGVTDCYTLFRDAYHLAGIEMPDFHRGDDWWRHGQNLYLDNLEATGLYQVPLSSAQPGDVLLCCFGSSVPNHAAIYCGDGELLHHIPEQLSKRERYTDKWQRRTHSLWRHREWHASAFTGICNDLAAASTFV	not soluble
ALSRYLLTESPAVCVLSGERGVGTTTLLNRILNKVKNATPIYINCPYDGYSALLPELAKQLGLDEESSERDILQYLRNSDTCYLLAFDSAQRLVKPKVNGLADLMKLTNLLRRARKSHRVVLAIEKSCWRFIDRARGERLLFDLVTFMP	not soluble
MGSDKIHHHHHHMTYDYTEPTLSAKGQRMRDILADYIALISHRLPDDVTAKLEELSKIEVDPLQKLVYDTMMENQLLANKLKRPSCQDTGALQFFIKCGAQFPLLGELNQILKDAVYRGTKKAPLRHNAVQTFDEYNTGMNIGDGIPSIFLQVDGNGTDISMYVYMAGGGCTLPGAAKVLMPGEGYEGVVRFVMDRMTSYGINACPPLLVGVGVATSVETAALNSKLALMRRVDSENPNANAAKLEHLLEDGINHIGLGPQGFGGQKSVMGVNVENTARHPSTIGVAVSTGCWSHRRGLINFDADLNYDLPLNKGVELS	not soluble
MRKLAAFLGLVGLLSLGLAQSAQEILDRVEKNLSTPWQATVQGRIQGPGGEEELLARVYALPQARLFRVEFLKPGSLEGNFTVITEKEVWNYLYLTNQLVISPREKAKIQGLGFAPQGLGDLKALSEQVDLRLEGEVRLPEGMAWKLVGRSKENQGFAAMELYILKADPRPLRFVFLDEKGKVLADLKVVEFKRTNLTEAQLKRYPKDAQVVRR	soluble
MGETKLFFGPNHPGMHGNFSVHMYVEGDIVKKARPVPGFLHRGFEKLMERRYWYSNISLIPRICVPEPDINEICYAMAIEKIAKVEVPERAQWIRMIVLELARIANHIWTVGGIGGPLGLYTASHWGVADRDRILDIFEALSGARVYHMYIIPGGVRKNMTPKIEEMIWKTLDYIESRLPDYENLIFKNRIVHSRLRGRLILTREQAVEMGVTGVGLRATGVEYDIRKVDPYLFYDRVEFEVPTATDGDAFSRVYLKFKEIPQSIKIIRQALEKMPQADRVNVPIGRGNGLRRIVPKGMAYAHVESTRGEYGFFVVSDGKNKPYRVAVRGASYPQGLYGIEKYLPGTRIEDVPIWLATMDVCAPEIDR	soluble
MGSDKIHHHHHHMGKFLVEREQMRYPVDVYTGKIQAYPEGKPSAIAKIQVDGELMLTELGLEGDEQAEKKVHGGPDRALCHYPREHYLYWAREFPEQAELFVAPAFGENLSTDGLTESNVYMGDIFRWGEALIQVSQPRSPCYKLNYHFDISDIAQLMQNTGKVGWLYSVIAPGKVSADAPLELVSRVSDVTVQEAAAIAWHMPFDDDQYHRLLSAAGLSKSWTRTMQKRRLSGKIEDFSRRLWGK	not soluble
